Test results from patent US20230235054A1 (BIOATLA, published 2023).

T1: human Nectin-4 on cells (human, UniProt Q96NY8 32-510)
T1 construct: whole, on cells; also called HEK293 cells expressing human Nectin-4; T47D cells that express human Nectin-4
T1 sequence (looked up): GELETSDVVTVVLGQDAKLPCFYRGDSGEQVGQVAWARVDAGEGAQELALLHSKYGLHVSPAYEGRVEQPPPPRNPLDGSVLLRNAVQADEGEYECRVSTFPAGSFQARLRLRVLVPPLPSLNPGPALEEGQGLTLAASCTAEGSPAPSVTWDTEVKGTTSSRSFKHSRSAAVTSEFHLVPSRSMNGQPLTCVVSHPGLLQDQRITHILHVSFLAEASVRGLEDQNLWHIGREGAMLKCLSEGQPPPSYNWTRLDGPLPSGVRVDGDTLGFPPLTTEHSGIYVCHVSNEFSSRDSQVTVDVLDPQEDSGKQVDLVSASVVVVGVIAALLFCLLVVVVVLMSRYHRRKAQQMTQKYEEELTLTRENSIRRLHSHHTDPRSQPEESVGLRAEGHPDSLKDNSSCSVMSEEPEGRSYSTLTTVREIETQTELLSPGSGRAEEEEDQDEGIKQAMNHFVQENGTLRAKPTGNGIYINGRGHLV

T2: cyno Nectin-4 on cells (cyno, UniProt A0A2K5WES1 32-510)
T2 construct: whole, on cells; also called HEK293 cells expressing cyno Nectin-4; cyno Nectin-4 cells
T2 sequence: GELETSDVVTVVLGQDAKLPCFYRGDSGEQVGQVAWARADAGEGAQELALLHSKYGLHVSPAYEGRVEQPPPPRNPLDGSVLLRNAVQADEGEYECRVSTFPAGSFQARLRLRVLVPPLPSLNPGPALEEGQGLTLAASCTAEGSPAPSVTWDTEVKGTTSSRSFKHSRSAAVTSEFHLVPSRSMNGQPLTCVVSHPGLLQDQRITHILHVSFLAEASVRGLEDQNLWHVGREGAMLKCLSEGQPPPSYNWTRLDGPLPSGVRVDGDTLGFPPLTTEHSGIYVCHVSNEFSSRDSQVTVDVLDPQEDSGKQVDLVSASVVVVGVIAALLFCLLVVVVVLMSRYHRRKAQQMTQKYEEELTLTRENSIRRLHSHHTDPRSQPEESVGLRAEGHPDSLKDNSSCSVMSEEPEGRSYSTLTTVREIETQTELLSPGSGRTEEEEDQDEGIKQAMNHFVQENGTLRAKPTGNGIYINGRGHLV

T3: huNectin4-His (human, UniProt Q96NY8 32-349)
T3 construct: Immobilized on the SPR chip; also called humanNectin4; human Nectin4; not shown: His tag
T3 sequence (looked up): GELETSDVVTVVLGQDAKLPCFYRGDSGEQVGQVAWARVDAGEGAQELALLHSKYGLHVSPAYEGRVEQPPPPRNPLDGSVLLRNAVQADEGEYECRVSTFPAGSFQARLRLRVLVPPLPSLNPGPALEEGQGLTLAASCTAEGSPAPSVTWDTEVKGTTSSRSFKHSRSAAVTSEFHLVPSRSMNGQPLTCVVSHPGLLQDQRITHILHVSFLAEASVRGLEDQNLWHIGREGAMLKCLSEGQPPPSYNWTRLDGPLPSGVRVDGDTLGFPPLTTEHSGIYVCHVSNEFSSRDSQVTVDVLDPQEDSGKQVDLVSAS


Legend:
human Nectin-4 on cells [1] = target: T1, human Nectin-4 on cells; experiment: FACS, T47D cells
human Nectin-4 on cells [2] = target: T1, human Nectin-4 on cells; experiment: FACS, HEK293 cells expressing human Nectin-4
Procedure: FACS analysis was carried out using HEK293 cells expressing human Nectin-4.

human Nectin-4 on cells [3] = target: T1, human Nectin-4 on cells; experiment: FACS, T47D cells; remark: listed apart in the source
cyno Nectin-4 on cells = target: T2, cyno Nectin-4 on cells; experiment: FACS, HEK293 cells expressing cyno Nectin-4
huNectin4-His [4] = target: T3, huNectin4-His; experiment: SPR, huNectin4-His immobilized, pH 7.4
Procedure: (§1) Binding kinetics of anti-Nectin4 antibodies were measured by surface plasmon resonance using a SPR2/4 instrument (Sierra Sensors, Hamburg, Germany) and flat amine sensor chips. The SPR sensor contained four flow cells (FC1-FC4), each of which was addressed individually or in groups. huNectin4-His was immobilized in FC2, and cynoNectin4-mFc in FC4. No protein was immobilized in FC1 and FC3 which were used as control surfaces for FC2 and FC4, respectively.
(§2) All injections were done at a flow rate of 25 μL/min at 25° C. The sensor surface was activated with 1-ethyl-3-(3-dimethylaminopropyl)-carbodiimide (EDC) and N-hydroxysuccinimide (NHS) (200 mM/50 mM) for 480 seconds. HuNectin4-His (2 μg/mL in 10 mM NaAc, pH4.5) was injected for 480s and the surface was inactivated by injecting 1M ethanolamine-HCl for 480s. CynoNectin4 was immobilized using the same conditions as described for huNectin4-His, except that the cynoNectin4 was diluted into 10 mM NaAc buffer having pH 5.0. The control surface was activated and deactivated using the same conditions, but without injecting protein. PBST buffer (PBS pH 7.4 with 0.05% TWEEN20™) was used as running buffer for the surface preparation. The running solution was switched to PBST with 30 mM sodium bicarbonate with the pH adjusted as indicated in the figures before the analyte injections. The instrument was equilibrated with the running solution for one hour before the first analyte injection.
(§3) The off-rate was measured for 360s. The chip surface was regenerated after each cycle of interaction analysis by injecting 6 μL of 10 mM glycine (pH 2.0). Flow cells 1 and 3 without immobilized protein were used as control surfaces for reference subtraction.

huNectin4-His [5] = target: T3, huNectin4-His; experiment: SPR, huNectin4-His immobilized, pH 6.5
Procedure: as §1, §2, §3

human Nectin-4 on cells [6] = target: T1, human Nectin-4 on cells; experiment: cell-based or functional assay

Row | Binder | Ratio (pH 7.4/6.0) of EC50 (human Nectin-4 on cells [1]) | Ratio (pH 7.4/6.0) of EC50 (human Nectin-4 on cells [2]) | Ratio (pH 7.4/6.0) of EC50 (human Nectin-4 on cells [3]) | Ratio (pH 7.4/6.0) of EC50 (cyno Nectin-4 on cells) | Kd (huNectin4-His [4]) [nM] | Kd (huNectin4-His [5]) [nM] | koff (huNectin4-His [4]) [s⁻¹] | kon (huNectin4-His [4]) [M⁻¹ s⁻¹] | koff (huNectin4-His [5]) [s⁻¹] | kon (huNectin4-His [5]) [M⁻¹ s⁻¹] | Ratio (pH 7.4/6.0) of cell killing EC50 (human Nectin-4 on cells [6])
1 | BAP-143-wildtype (antibody, V domains shown, 150 kDa used in SPR; also called BAP143-00-00; benchmark (BM)) VH: EVQLVESGGGLVQPGGSLRLSCAASGFTFSSYNMNWVRQAPGKGLEWVSYISSSSSTIYYADSVKGRFTISRDNAKNSLSLQMNSLRDEDTAVYYCARAYYYGMDVWGQGTTVTVSS VL: DIQMTQSPSSVSASVGDRVTITCRASQGISGWLAWYQQKPGKAPKFLIYAASTLQSGVPSRFSGSGSGTDFTLTISSLQPEDFATYYCQQANSFPPTFGGGTKVEIK | 0.9 | 1.2 | 1.2 | 1.7 | 0.127 | 0.685 |  |  |  |  | 
2 | BAP-143-06-24-16 (antibody, V domains shown, Used as a conjugate with a linker payload (CAB ADC)) VH: EVQLVQSGAEVKKPGATVKISCKVSGFTFSSYNMNWIRQSPSRGLEWLGYISSSSSTIYYADSVKGRFTISRDNSKNTLYLQMNSLRAEDTAVYYCARAYYYGDDVWGQGTLVTVSS VL: DIQMTQSPSSVSASVGDRVTITCHASQGISGWLAWYQQKPGKAPKFLIYAASTLQSGVPSRFSGSGSGTDFTLTISSLQPEDFATYYCQQANSFPPTFGGGTKVEIK |  |  | 2.9 |  | 0.0067 |  | 5.21e-06 | 778000 |  |  | 
3 | BAP-143-00-02 (antibody, V domains shown, Used as a conjugate with a linker payload (CAB ADC)) VH: EVQLVESGGGLVQPGGSLRLSCAASGFTFSSYNMNWVRQAPGKGLEWVSYISSSSSTIYYADSVKGRFTISRDNAKNSLSLQMNSLRDEDTAVYYCARAYYYGMDVWGQGTTVTVSS VL: DIQMTQSPSSVSASVGDRVTITCRASQGISGWLAWYQQKPGKAPKFLIYAASTLQSGVPSRFSGSGSGTDFTLTISSLQPEDFATYYCQQANSEPPTFGGGTKVEIK | 2.9 | 1.6 |  | 2.3 |  |  |  |  |  |  | 1.7
4 | BAP-143-00-04 (antibody, V domains shown, Used as a conjugate with a linker payload (CAB ADC)) VH: EVQLVESGGGLVQPGGSLRLSCAASGFTFSSYNDNWVRQAPGKGLEWVSYISSSSSTIYYADSVKGRFTISRDNAKNSLSLQMNSLRDEDTAVYYCARAYYYGMDVWGQGTTVTVSS VL: DIQMTQSPSSVSASVGDRVTITCRASQGISGWLAWYQQKPGKAPKFLIYAASTLQSGVPSRFSGSGSGTDFTLTISSLQPEDFATYYCQQANSFPPTFGGGTKVEIK | 2.1 | 2.1 |  | 2.1 |  | 1.5 |  |  | 0.00439 | 2.94e+06 | 2.7
5 | BAP-143-00-03 (antibody, V domains shown, Used as a conjugate with a linker payload (CAB ADC)) VH: EVQLVESGGGLVQPGGSLRLSCAASGFTFSSYNMNWVRQAPGKGLEWVSYISSSSSTIYYADSVKGRFTISRDNAKNSLSLQMNSLRDEDTAVYYCARAYYYGMDVWGQGTTVTVSS VL: DIQMTQSPSSVSASVGDRVTITCRASQGISGWLAWYQQKPGKAPKFLIYAASTLQSGVPSRFSGSGSGTDFTLTISSLQPEDFATYYCQQANSFPDTFGGGTKVEIK | 3.6 | 2 |  | 3.6 |  | 2.97 |  |  | 0.00229 | 771000 | 2.6

Second part, led by results:

Row | Ratio (pH 7.4/6.0) of EC50 (human Nectin-4 on cells [1]) | Ratio (pH 7.4/6.0) of EC50 (human Nectin-4 on cells [2]) | Ratio (pH 7.4/6.0) of EC50 (human Nectin-4 on cells [3]) | Ratio (pH 7.4/6.0) of EC50 (cyno Nectin-4 on cells) | Kd (huNectin4-His [4]) [nM] | Kd (huNectin4-His [5]) [nM] | koff (huNectin4-His [4]) [s⁻¹] | kon (huNectin4-His [4]) [M⁻¹ s⁻¹] | koff (huNectin4-His [5]) [s⁻¹] | kon (huNectin4-His [5]) [M⁻¹ s⁻¹] | Binder | Ratio (pH 7.4/6.0) of cell killing EC50 (human Nectin-4 on cells [6])
6 |  |  | 14.8 |  |  |  |  |  |  |  | BAP-143-06-33-03 (antibody, V domains shown, Used as a conjugate with a linker payload (CAB ADC)) VH: QVQLVQSGAEVKKPGASVKVSCKASGFTFSSYNMNWVRQARGQRLEWIGYISSSSSTIYYADSVKGRFTISRDNSKNTLYLQMNSLRAEDTAVYYCARAYYYGMDKWGQGTLVTVSS VL: DIQMTQSPSSVSASVGDRVTITCRASQGISGWLAWYQQKPGKAPKFLIYAASTLQSGVPSRFSGSGSGTDFTLTISSLQPEDFATYYCQQANSEPPTFGGGTKVEIK | 
7 | 2.4 | 1.7 |  | 2.5 |  | 6.23 |  |  | 0.00453 | 726000 | BAP-143-00-05 (antibody, V domains shown, Used as a conjugate with a linker payload (CAB ADC)) VH: EVQLVESGGGLVQPGGSLRLSCAASGFTFSSYNMNWVRQAPGKGLEWVSYISSSSSTIYYADSVKGRFTISRDNAKNSLSLQMNSLRDEDTAVYYCAEAYYYGMDVWGQGTTVTVSS VL: DIQMTQSPSSVSASVGDRVTITCRASQGISGWLAWYQQKPGKAPKFLIYAASTLQSGVPSRFSGSGSGTDFTLTISSLQPEDFATYYCQQANSFPPTFGGGTKVEIK | 2
8 |  |  | 4.5 |  | 0.925 |  | 0.000401 | 434000 |  |  | BAP-143-07-03-12 (antibody, V domains shown, Used as a conjugate with a linker payload (CAB ADC)) VH: EVQLVESGGGLVQPGGSLRLSCAASGFTFSSYNMNWVRQAPGKGLEWVSYISSSSSTIYYADSVKGRFTISRDNAKNSLSLQMNSLRDEDTAVYYCARAYYYGMDKWGQGTTVTVSS VL: DIQMTQSPSSVSASVGDRVTITCRASQGISGWEAWYQQKPGKAPKFLIYAASTLQSGVPSRFSGSGSGTDFTLTISSLQPEDFATYYCQQANSFPPTFGGGTKVEIK | 
9 | 2.6 | 1.2 |  | 3.2 |  | 0.22 |  |  | 0.000726 | 3.3e+06 | BAP-143-00-06 (antibody, V domains shown, Used as a conjugate with a linker payload (CAB ADC)) VH: EVQLVESGGGLVQPGGSLRLSCAASGFTFSSYNMNWVRQAPGKGLEWVSYISSSSSTIYYADSVKGRFTISRDNAKNSLSLQMNSLRDEDTAVYYCARAYYYGDDVWGQGTTVTVSS VL: DIQMTQSPSSVSASVGDRVTITCRASQGISGWLAWYQQKPGKAPKFLIYAASTLQSGVPSRFSGSGSGTDFTLTISSLQPEDFATYYCQQANSFPPTFGGGTKVEIK | 1.2
10 |  |  | 3.4 |  | 0.17 |  | 2.01e-05 | 119000 |  |  | BAP-143-06-33-16 (antibody, V domains shown, Used as a conjugate with a linker payload (CAB ADC)) VH: EVQLVQSGAEVKKPGATVKISCKVSGFTFSSYNMNWIRQSPSRGLEWLGYISSSSSTIYYADSVKGRFTISRDNSKNTLYLQMNSLRAEDTAVYYCARAYYYGDDVWGQGTLVTVSS VL: DIQMTQSPSSVSASVGDRVTITCRASQGISGWEAWYQQKPGKAPKFLIYAASTLQSGVPSRFSGSGSGTDFTLTISSLQPEDFATYYCQQANSFPPTFGGGTKVEIK | 
